Experimental data from publication PMC3492304, “Characterization of Arabidopsis FPS Isozymes and FPS Gene Expression Analysis Provide Insight into the Biosynthesis of Isoprenoid Precursors in Seeds” (PLoS ONE, 2012).

T1: FPS1S (Arabidopsis thaliana, UniProt Q09152)
T1 construct: gene FPS1; short isoform, 343 residues, lacking the 41-residue N-terminal extension of FPS1L; cDNA pcNC3; GST fusion in E. coli BL21(DE3), GST removed with Factor Xa leaving no extra residues; homodimer
T1 sequence (Q09152 1-343 isoform Q09152-2): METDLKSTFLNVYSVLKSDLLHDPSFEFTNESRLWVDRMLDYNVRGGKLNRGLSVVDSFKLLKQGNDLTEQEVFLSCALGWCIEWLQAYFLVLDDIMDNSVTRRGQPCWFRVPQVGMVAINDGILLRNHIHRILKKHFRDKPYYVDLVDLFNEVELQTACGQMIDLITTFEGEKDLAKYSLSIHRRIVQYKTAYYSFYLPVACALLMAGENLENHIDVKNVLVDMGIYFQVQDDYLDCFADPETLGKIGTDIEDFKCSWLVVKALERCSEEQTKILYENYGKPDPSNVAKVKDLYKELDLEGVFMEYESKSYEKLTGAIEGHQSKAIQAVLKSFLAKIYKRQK

T2: FPS2 (Arabidopsis thaliana, UniProt Q43315)
T2 construct: full length, 342 residues; cDNA pcNC2; GST fusion in E. coli BL21(DE3), GST removed with Factor Xa leaving no extra residues; homodimer
T2 sequence (Q43315 1-342): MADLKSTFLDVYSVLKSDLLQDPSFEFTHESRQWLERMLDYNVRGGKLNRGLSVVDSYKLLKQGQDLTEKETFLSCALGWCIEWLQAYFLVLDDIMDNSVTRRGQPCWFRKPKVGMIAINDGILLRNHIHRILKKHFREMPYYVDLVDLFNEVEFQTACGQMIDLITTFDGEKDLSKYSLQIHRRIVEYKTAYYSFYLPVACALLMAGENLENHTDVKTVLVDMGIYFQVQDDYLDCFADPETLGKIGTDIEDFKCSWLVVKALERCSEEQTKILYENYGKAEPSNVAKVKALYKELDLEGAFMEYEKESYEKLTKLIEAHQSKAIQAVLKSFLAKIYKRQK

B1: FPS2 (Arabidopsis thaliana) (protein)
chain: MADLKSTFLDVYSVLKSDLLQDPSFEFTHESRQWLERMLDYNVRGGKLNRGLSVVDSYKLLKQGQDLTEKETFLSCALGWCIEWLQAYFLVLDDIMDNSVTRRGQPCWFRKPKVGMIAINDGILLRNHIHRILKKHFREMPYYVDLVDLFNEVEFQTACGQMIDLITTFDGEKDLSKYSLQIHRRIVEYKTAYYSFYLPVACALLMAGENLENHTDVKTVLVDMGIYFQVQDDYLDCFADPETLGKIGTDIEDFKCSWLVVKALERCSEEQTKILYENYGKAEPSNVAKVKALYKELDLEGAFMEYEKESYEKLTKLIEAHQSKAIQAVLKSFLAKIYKRQK
notes: full length, 342 residues; cDNA pcNC2; GST fusion in E. coli BL21(DE3), GST removed with Factor Xa leaving no extra residues; homodimer
B2: FPS1S (Arabidopsis thaliana) (protein)
chain: METDLKSTFLNVYSVLKSDLLHDPSFEFTNESRLWVDRMLDYNVRGGKLNRGLSVVDSFKLLKQGNDLTEQEVFLSCALGWCIEWLQAYFLVLDDIMDNSVTRRGQPCWFRVPQVGMVAINDGILLRNHIHRILKKHFRDKPYYVDLVDLFNEVELQTACGQMIDLITTFEGEKDLAKYSLSIHRRIVQYKTAYYSFYLPVACALLMAGENLENHIDVKNVLVDMGIYFQVQDDYLDCFADPETLGKIGTDIEDFKCSWLVVKALERCSEEQTKILYENYGKPDPSNVAKVKDLYKELDLEGVFMEYESKSYEKLTGAIEGHQSKAIQAVLKSFLAKIYKRQK
notes: short isoform, 343 residues, lacking the 41-residue N-terminal extension of FPS1L; cDNA pcNC3; GST fusion in E. coli BL21(DE3), GST removed with Factor Xa leaving no extra residues; homodimer

What was measured:
[1] = molecular target: T1, FPS1S; assay: radiometric [[…]-14C]IPP incorporation, acid hydrolysis and hexane extraction; format: biochemical; settings: product inhibition; FPP 0 to 1 mM; PIPES pH 7.0, 37°C
[2] = molecular target: T2, FPS2; assay: as above; format: biochemical; settings: product inhibition; FPP 0 to 1 mM; PIPES pH 7.0, 37°C
[3] = substrate: C=C(C)CCO[P@@](=O)(O)OP(=O)(O)O; assay: purified protein; settings: 200 µM DMAPP, 4 mM MgCl2, PIPES pH 7.0, 37°C, labelled compound, apparent Km, kcat per dimer
[4] = substrate: CC(C)=CCOP(=O)(O)OP(=O)(O)O; assay: purified protein; format: biochemical, Arabidopsis thaliana; settings: 100 µM IPP, 4 mM MgCl2, PIPES pH 7.0, 37°C, apparent Km, kcat per dimer
[5] = substrate: CC(C)=CCC/C(C)=C/COP(=O)(O)OP(=O)(O)O; assay: purified protein; format: biochemical, Arabidopsis thaliana; settings: 100 µM IPP, 4 mM MgCl2, PIPES pH 7.0, 37°C, apparent Km, kcat per dimer

Molecule	% reduction of activity at 1 mM [1]	% reduction of activity at 1 mM [2]	Km [3]	kcat [3]	kcat/Km [3]	Km [4]	kcat [4]	kcat/Km [4]	Km [5]	kcat [5]	kcat/Km [5]
CC(C)=CCC/C(C)=C/CC/C(C)=C/COP(=O)(O)OP(=O)(O)O [FPP]	~ 30%	~ 30%									
B1			31.3 ± 0.5 µM	4.48 s⁻¹	143000 M⁻¹ s⁻¹	31.5 ± 0.5 µM	3.29 s⁻¹	103000 M⁻¹ s⁻¹	11.3 ± 1.0 µM	2.21 s⁻¹	195000 M⁻¹ s⁻¹
B2			23.1 ± 0.4 µM	1.04 s⁻¹	45000 M⁻¹ s⁻¹	22.7 ± 2.1 µM	0.87 s⁻¹	38300 M⁻¹ s⁻¹	8.3 ± 1.2 µM	0.607 s⁻¹	73300 M⁻¹ s⁻¹
